First the molecules themselves.
B1: Pistol ribozyme (parent)
chain: GGGUCGUUGUUCCAUAAUCGCGUGGAUAUGGCACGCAAGUUUCUACCGGGCACCGUAAAUGUCCGACUGGAGCCGUUCGGGCGGCUAUAAACAGACCUCAGGCCCGAAGCGUGGCGGCACCUGCCGCCGGUGGUAAAAAAGAUCGGAAGAGCACACGUCU

In this data set the parent is B1. As to the kind of experiment: aptazyme ON/OFF ratio, guanine; higher = stronger switching; co-transcriptional cleavage with and without guanine.
On to U7C G9A U10C U11G C12U, for which the “aptazyme ON/OFF ratio” value worked out at 1.45.
Turning to U7C G9A U10C U11G C12G, the “aptazyme ON/OFF ratio” value turned out to be 1.28.
For U7C G9A U11G C12G, the “aptazyme ON/OFF ratio” value worked out at 1.37.
The result for U7C G9A U11G C12U reads 1.27; that for U7C G9A U11G C12A, 1.08; that for U7C G9C U10G C13A, 1.11.
Consider U7C G9C U10G C13G, for which the “aptazyme ON/OFF ratio” value turned out to be 1.08.
The result for U7C G9C U10G C13U reads 1.07.
With U7C G9C U10C U11G C13G, the “aptazyme ON/OFF ratio” value was determined as 1.05.
As for U7C G9C U10C U11G C13A, the “aptazyme ON/OFF ratio” value was 1.12.
With U7C G9C U10C U11G C13U the figure was 1.19; with U7C G9C U10C U11G C12G, 1.14.
Consider U7C G9C U10C U11G C12U, for which the “aptazyme ON/OFF ratio” value turned out to be 1.01.
With U7C G9C U10C U11G C12A, the “aptazyme ON/OFF ratio” value amounted to 1.05.
U7C G9C U10G U11C C12A C13U: the “aptazyme ON/OFF ratio” value is 1.11.
Consider U7C G9C U10G U11C C12A C13A, for which the “aptazyme ON/OFF ratio” value was 1.12.
With U7C G9C U10G U11C C12A C13G the figure was 1.09; with U7C G9A U11G C12U C13G, 1.23; with U7C G9A U11G C12U C13A, 1.35.
With U7C G9A U11G C12U C13U the figure was 1.45; with U7C G9C U10C U11C, 0.99.
As for U7C G9C U10C U11A, the “aptazyme ON/OFF ratio” value was determined as 0.975.
With U7C G9C U10C U11G the figure was 1.07; with U7C G9A U10G C12U, 1.33.
For U7C G9A U10G C12G, the “aptazyme ON/OFF ratio” value stood at 1.28.
Regarding U7C G9A U10G C12A, the “aptazyme ON/OFF ratio” value was found to be 1.15.
On to U7C G9C U10C U11G C12A C13G, for which the “aptazyme ON/OFF ratio” value was 1.05.
For U7C G9C U10C U11G C12A C13A, the “aptazyme ON/OFF ratio” value worked out at 1.14.
On to U7C G9C U10C U11G C12A C13U, for which the “aptazyme ON/OFF ratio” value was found to be 1.04.
The result for U7C G9A U10C U11C C12U reads 1.05; that for U7C G9C U10G U11C C12U, 1.11; that for U7C G9C U10G U11C C12A, 1.19.
On to U7C G9C U10G U11C C12G, for which the “aptazyme ON/OFF ratio” value was determined as 1.25.
Take U7C G9C U10A U11A C12U C13G: the “aptazyme ON/OFF ratio” value came out at 1.06.
For U7C G9C U10A U11A C12U C13U, the “aptazyme ON/OFF ratio” value is 1.09.
The result for U7C G9C U10A U11A C12U C13A reads 1.04; that for U7C G9C U10C C13U, 1.08.
As to U7C G9C U10C C13A, the “aptazyme ON/OFF ratio” value came to 1.04.
The result for U7C G9C U10C C13G reads 1.04.
Take U7C G9A U10G U11A C13A: the “aptazyme ON/OFF ratio” value was determined as 1.06.
U7C G9A U10G U11A C13G: the “aptazyme ON/OFF ratio” value stood at 1.04.
U7C G9A U10G U11A C13U: the “aptazyme ON/OFF ratio” value is 1.03.
With U7C G9C U10C U11C C12A C13U, the “aptazyme ON/OFF ratio” value turned out to be 1.04.
With U7C G9C U10C U11C C12A C13G the figure was 1.05; with U7C G9C U10C U11C C12A C13A, 1.04; with U7C G9C U10G U11A C13A, 1.17.
The result for U7C G9C U10G U11A C13G reads 1.05.
Regarding U7C G9C U10G U11A C13U, the “aptazyme ON/OFF ratio” value was found to be 1.11.
As for U7C G9C U10C U11C C12U C13G, the “aptazyme ON/OFF ratio” value was found to be 1.02.
In the case of U7C G9C U10C U11C C12U C13A, the “aptazyme ON/OFF ratio” value stood at 1.03.
In the case of U7C G9C U10C U11C C12U C13U, the “aptazyme ON/OFF ratio” value came to 1.01.
For U7C G9C U10G U11A C12U, the “aptazyme ON/OFF ratio” value was 1.15.
For the variant U7C G9C U10G U11A C12A, the “aptazyme ON/OFF ratio” value worked out at 1.25.
Consider U7C G9C U10G U11A C12G, for which the “aptazyme ON/OFF ratio” value was 1.23.
As to U7C G9A U10C U11G C12U C13G, the “aptazyme ON/OFF ratio” value was 1.34.
As to U7C G9A U10C U11G C12U C13U, the “aptazyme ON/OFF ratio” value came to 1.32.
With U7C G9A U10C U11G C12U C13A, the “aptazyme ON/OFF ratio” value is 1.31.
With U7C G9C U10C U11G C12G C13G the figure was 1.11; with U7C G9C U10C U11G C12G C13U, 1.12.
For the variant U7C G9C U10C U11G C12G C13A, the “aptazyme ON/OFF ratio” value was 1.11.
As to U7C G9A U11C C12A C13U, the “aptazyme ON/OFF ratio” value was 1.15.
In the case of U7C G9A U11C C12A C13A, the “aptazyme ON/OFF ratio” value turned out to be 1.16.
As to U7C G9A U11C C12A C13G, the “aptazyme ON/OFF ratio” value stood at 1.12.
Consider U7C G9C U10C, for which the “aptazyme ON/OFF ratio” value came out at 1.14.
Take U7C G9C U10A: the “aptazyme ON/OFF ratio” value was found to be 1.06.
Take U7C G9C U10G: the “aptazyme ON/OFF ratio” value was 1.08.
For U7C G9C U10C U11A C13G, the “aptazyme ON/OFF ratio” value is 1.05.
Regarding U7C G9C U10C U11A C13A, the “aptazyme ON/OFF ratio” value was determined as 1.09.
Consider U7C G9C U10C U11A C13U, for which the “aptazyme ON/OFF ratio” value came out at 1.03.
As to U7C G9C U10A U11C C12A C13U, the “aptazyme ON/OFF ratio” value stood at 1.05.
On to U7C G9C U10A U11C C12A C13G, for which the “aptazyme ON/OFF ratio” value was 1.07.
Take U7C G9C U10A U11C C12A C13A: the “aptazyme ON/OFF ratio” value was found to be 1.08.
Take U7C G9A U10G U11G C12U C13A: the “aptazyme ON/OFF ratio” value is 1.14.
Consider U7C G9A U10G U11G C12U C13G, for which the “aptazyme ON/OFF ratio” value amounted to 1.05.
As to U7C G9A U10G U11G C12U C13U, the “aptazyme ON/OFF ratio” value is 1.21.
For the variant U7C G9A U11A C13G, the “aptazyme ON/OFF ratio” value was 1.09.
Take U7C G9A U11A C13U: the “aptazyme ON/OFF ratio” value was determined as 1.13.
In the case of U7C G9A U11A C13A, the “aptazyme ON/OFF ratio” value was 1.21.
On to U7C G9C U10A U11C C12U C13A, for which the “aptazyme ON/OFF ratio” value was 1.04.
On to U7C G9C U10A U11C C12U C13U, for which the “aptazyme ON/OFF ratio” value is 1.03.
For U7C G9C U10A U11C C12U C13G, the “aptazyme ON/OFF ratio” value came to 1.03.
The result for U7C G9A U11G C13A reads 1.46; that for U7C G9A U11G C13U, 1.11.
As for U7C G9A U11G C13G, the “aptazyme ON/OFF ratio” value is 1.07.
